The target in this test is T1, DYNLL1 (Homo sapiens, UniProt P63167).
T1 construct: 6xHis (N); made in house; host or cells: E. coli BL21(DE3)Star
Kind of test: Isothermal titration calorimetry of peptide/protein binding to DYNLL1. The following applies: ITC binding enthalpy, PBS + 3 mM 2-mercaptoethanol pH 7.4, 299 K. The protocol:
Binding parameters of the in vitro evolved Ac-[…] and naturally evolved Ac-DKSTQTD consensus peptides were determined by isothermal titration calorimetry (ITC). Synthetic peptides were used and N-terminal acetylation was applied to better mimic a non-terminal peptide motif by avoiding the positively charged N-terminus. In order to elucidate the particular contribution of Val-5 to the binding affinity, several control peptides were produced. The in vitro evolved Val-5 was replaced with a glycine (Gly-5) to assess side chain function. In a further truncated variant the entire amino acid residue was replaced with an acetate group (Ac-5) to assess the function of the amide group at position −5. The same variations of Val-5, Gly-5 or Ac-5 were also introduced in the framework of the naturally evolved consensus peptide. DYNNL1 binding of all six variants was analyzed by ITC. In all measurements the stoichiometry of binding was 1∶1 (2 peptides binding to one homodimer DYNNL1). […]
All peptides and DYNLL1 were dialyzed overnight in PBS buffer supplemented with 3 mM 2-mercaptoethanol (pH 7.4). […] For each experiment the thermodynamic parameters were determined at 299 K. We used a VP-ITC instrument from Microcal and the data were fitted by the software package Origin 5.0 (OriginLab) using the simple A + B to AB binding model. […]
In general terms: In ITC the heat of successive injections is recorded.

T1 sequence (P63167 whole entry): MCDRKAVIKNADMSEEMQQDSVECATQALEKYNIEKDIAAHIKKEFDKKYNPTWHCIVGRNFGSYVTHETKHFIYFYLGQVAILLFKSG

B1: EML3 (8-94): recombinant fragment of EML3 (residues 8–94) containing a coiled coil domain and the in vitro evolved consensus motif (protein, UniProt Q32P44 8-94, looked up, fragment)
chain: GDGPAREALQSLSQRLRVQEQEMELVKAALAEALRLLRLQVPPSSLQGSGTPAPPGDSLAAPPGLPPTCTPSLVSRGTQTETEVELK
B1: the ΔH was -7.74 kcal/mol.

The record behind these values is article PMC3078936 (PLoS ONE, 2011).
